Experiments:
[1] = substrate: O=[N+]([O-])c1ccc(O[C@@H]2O[C@H](CO)[C@@H](O[C@@H]3O[C@H](CO)[C@H](O)[C@H](O)[C@H]3O)[C@H](O)[C@H]2O)c(Cl)c1; assay: Michaelis-Menten kinetic constants on CNPLac; format: biochemical, Trichoderma reesei; details: other: Tr Cel7A, 50 mM sodium phosphate pH 5.7, 22° C.
Method: (§1) The Michaelis-Menten and cellobiose inhibition constants were determined from the cellobiohydrolases produced heterologously in T. reesei (Examples 14 and 15). The enzymes were purified as described in Example 2. Protein concentrations of purified enzymes were measured by their absorption at 280 nm using a theoretical molar extinction co-efficient, which were calculated from the amino acid sequences (Gill and von Hippel, 1989).
(§2) Kinetic constants (Km and kcat values) and cellobiose inhibition constant (Ki) for Tr CBHI/Cel7A, Ta CBH/Cel7A, At CBH/Cel7A and Ct CBH/Cel7A, were measured using CNPLac (2-Chloro-4-nitrophenyl-β-D-lactoside) as substrate at ambient temperature (22° C.) in 50 mM sodium phosphate buffer, pH 5.7. For the determination of the inhibition constant (Ki), eight different substrate concentrations (31-4000 μM) in the presence of a range of five inhibitor concentrations (0-100 μM or 0-400 μM), which bracket the Ki value, were used. All experiments were performed in microtiter plates and the total reaction volume was 200 μl. The initial rates were in each case measured by continuous monitoring the release of the chloro-nitrophenolate anion (CNP, 2-Chloro-4-nitrophenolate) through measurements at 405 nm using Varioscan (Thermolabsystems) microtiter plate reader. The results were calculated from CNP standard curve (from 0 to 100 μM). Enzyme concentrations used were: Tr CBHI/Cel7A 2.46 μM, Ta CBH/Cel7A 1.58 μM, Ct CBH/Cel7A 0.79 μM and At CBH/Cel7A 3 μM. The Km and kcat constants were calculated from the fitting of the Michaelis-Menten equation using the programme of Origin. Lineweaver-Burk plots, replots (LWB slope versus [Glc2; cellobiose]) and Hanes plots were used to distinguish between competitive and mixed type inhibition and to determine the inhibition constants (Ki).

[2] = substrate: O=[N+]([O-])c1ccc(O[C@@H]2O[C@H](CO)[C@@H](O[C@@H]3O[C@H](CO)[C@H](O)[C@H](O)[C@H]3O)[C@H](O)[C@H]2O)c(Cl)c1; assay: Michaelis-Menten kinetic constants on CNPLac; format: biochemical, Chaetomium thermophilum; details: other: Ct Cel7A, 50 mM sodium phosphate pH 5.7, 22° C.
Method: as §1, §2

[3] = pH optimum of recombinant CBH/Cel7 proteins; format: biochemical; details: McIlvaine buffer, pH range 3.0-8.0, MUL, 50° C., 10 min
Method: The recombinant CBH/Cel7 enzyme preparations were characterized in terms of pH optimum and thermal stability. The pH optimum of the recombinant CBH/Cel7 proteins from Thermoascus aurantiacus, Chaetomium thermophilum, and Acremonium thermophilum were determined in the universal McIlvaine buffer within a pH range of 3.0-8.0 using 4-methylumbelliferyl-β-D-lactoside (MUL) as a substrate (FIG. 3A). The pH optimum for Ct Cel7A and At Cel7A enzymes is at 5.5, above which the activity starts to gradually drop. The pH optimum of the recombinant crude Ta Cel7A is at 5.0 (FIG. 3A). Thermal stability of the recombinant Cel7 enzymes was determined by measuring the MUL activity in universal McIlvaine buffer at the optimum pH with reaction time of 1 h.

[4] = Hydrolysis with CBH enzyme mixtures, Avicel; format: biochemical; details: additional enzymes EGII, bG; 48 h, 45° C., pH 5.0
Method: (§3) The performance of the purified recombinant cellobiohydrolases was evaluated in the hydrolysis studies with purified T. reesei enzymes. Hydrolysis was carried out with controlled mixtures of purified enzymes on several pre-treated substrates. […] In addition, pure T. reesei cellulases (purified as described by Suurnäkki et al., 2000) were used in the enzyme mixtures. The cellobiohydrolases used in the experiment were:
(§4) Each CBH/Cel7 to be tested (dosage 14.5 mg/g dry matter of substrate) was used either together with EGII/Cel5A of T. reesei (3.6 mg/g) or with a mixture containing T. reesei EGI/Cel7B (1.8 mg/g), EGII/Cel5A (1.8 mg/g), xylanase pI 9 (Tenkanen et al. 1992) (5000 nkat/g) and acetyl xylan esterase (AXE) (Sundberg and Poutanen, 1991) (250 nkat/g). All mixtures were supplemented with additional β-glucosidase from a commercial enzyme preparation Novozym 188 (176 nkat/g d.w.). Triplicate tubes containing the enzyme mixture and 10 mg (dry matter)/ml of the substrate suspended in 0.05 M sodium acetate were incubated in mixing by magnetic stirring at 45° C. for 48 h. Reference samples with inactivated enzymes and corresponding substrates were also prepared. The release of hydrolysis products was measured as reducing sugars with DNS method using glucose as standard (Table 30).
Crystalline cellulose (Avicel)

[5] = Hydrolysis with CBH enzyme mixtures, spruce; format: biochemical; details: additional enzymes EGII, bG; 48 h, 45° C., pH 5.0
Method: as §3, §4
Washed steam pre-treated spruce fibre (impregnation with 3% w/w SO2 for 20 min, followed by steam pre-treatment at 215° C. for 5 min), dry matter 25.9% (SPRUCE).

[6] = Hydrolysis with CBH enzyme mixtures, corn stover; format: biochemical; details: additional enzymes EGII, bG, 48 h, 45° C., pH 5.0
Method: as §3, §4
Washed wet oxidized corn stover fibre (WOCS).

[7] = Hydrolysis with CBH enzyme mixtures, willow; format: biochemical; details: additional enzymes EGII, bG, 48 h, 45° C., pH 5.0
Method: as §3, §4
Washed steam pre-treated willow fibre (pre-treatment for 14 min at 210° C.), dry matter 23.0% (WILLOW).

[8] = pH optimum of heterologously produced endoglucanases; format: biochemical; details: McIlvaine's buffer, pH range 4.0-8.0, CMC, 10 min, 50° C.
Method: (§5) The pH optimum of the heterologously produced endoglucanases was determined in the universal McIlvaine's buffer within a pH range of 4.0-8.0 using carboxymethylcellulose as substrate. As shown in FIG. 6 A the broadest pH range (4.5-6.0) is that of the Acremonium EG—40/Cel45A protein, the optimum being at pH 5.5. The pH optima for the other heterologously produced endoglucanases are pH 5.0-5.5 and 6.0 for Acremonium EG—40_like/Cel45B and Thermoascus EG—28/Cel5A, respectively. The optimal temperature for enzymatic activity of these endoglucanases was determined at the temperature range of 50-85° C. as described above. The highest activity of the enzymes was determined to be at 75° C., 60° C., and 75° C. for the Acremonium EG—40/Cel45A, EG—40 like/Cel45B, and Thermoascus EG—28/Cel5A, respectively (FIG. 6 B).

[9] = Temperature optimum of heterologously produced endoglucanases; format: biochemical; details: temperature range 50-85° C., CMC
Method: as §5

[10] = Hydrolysis with endoglucanase preparations, spruce; format: biochemical; details: with CBHI and CBHII of T. reesei; 48 h, 45° C., pH 5.0
Method: (§6) The preparations containing the endoglucanases were compared in hydrolysis studies mixed with the purified CBH/Cel7 and CBH/Cel6 enzymes on several pre-treated substrates. Culture filtrates of T. reesei, containing different cloned endoglucanase enzymes were obtained as described in Example 19. The enzymes were enriched by removing thermolabile proteins from the mixtures by a heat treatment (60° C., 2 h, pH 5) and the supernatant was used for the hydrolysis studies. In addition, pure T. reesei cellulases (purified as described by Suurnäkki et al., 2000) were used in the enzyme mixtures. The endoglucanases used in the experiment were:
Washed steam pre-treated spruce fibre (impregnation with 3% SO2 for 20 min, followed by steam pre-treatment at 215° C. for 5 min), dry matter 25.9% (SPRUCE).
(§7) The endoglucanases to be studied (dosage 840 nkat/g dry matter, based on endoglucanase activity against HEC according to IUPAC, 1987) were used either with cellobiohydrolases of T. reesei (CBHI/Cel7A, 8.1 mg/g d.m. and CBHII/Cel6A, 2.0 mg/g d.m.) or with Thermoascus aurantiacus Cel7A with genetically attached CBD of T. reesei (10.1 mg/g d.m.). Purified (Suurnäkki et al., 2000) EGI (Cel7B) and EGII (Cel5A) of T. reesei were also included in the experiments for comparison. All mixtures were supplemented with additional β-glucosidase from Novozym 188 (to make the total β-glucosidase dosage 560 nkat/g d.w., the relatively high dosage was used to compensate the differences in the background activities of the different EG preparations). Triplicate tubes were incubated in mixing at 45° C. for 48 h and reference samples with inactivated enzymes and corresponding substrates were prepared. The release of hydrolysis products was measured as reducing sugars with DNS method using glucose as standard (Table 31).

[11] = Hydrolysis with endoglucanase preparations, corn stover; format: biochemical; details: with CBHI and CBHII of T. reesei; 48 h, 45° C., pH 5.0
Method: as §6
Steam exploded corn stover fibre (steam pre-treatment at 210° C. for 5 min), dry matter 31.0% (SECS).
as §7

B1: Trichoderma reesei cellobiohydrolase I Tr Cel7A (Tr CBHI/Cel7A) (Trichoderma reesei RUT C-30) (protein)
chain: QSACTLQSETHPPLTWQKCSSGGTCTQQTGSVVIDANWRWTHATNSSTNCYDGNTWSSTLCPDNETCAKNCCLDGAAYASTYGVTTSGNSLSIGFVTQSAQKNVGARLYLMASDTTYQEFTLLGNEFSFDVDVSQLPCGLNGALYFVSMDADGGVSKYPTNTAGAKYGTGYCDSQCPRDLKFINGQANVEGWEPSSNNANTGIGGHGSCCSEMDIWEANSISEALTPHPCTTVGQEICEGDGCGGTYSDNRYGGTCDPDGCDWNPYRLGNTSFYGPGSSFTLDTTKKLTVVTQFETSGAINRYYVQNGVTFQQPNAELGSYSGNELNDDYCTAEEAEFGGSSFSDKGGLTQFKKATSGGMVLVMSLWDDYYANMLWLDSTYPTNETSSTPGAVRGSCSTSSGVPAQVESQSPNAKVTFSNIKFGPIGSTGNPSGGNPPGGNPPGTTTTRRPATTTGSSPGPTQSHYGQCGGIGYSGPTVCASGTTCQVLNPYYSQCL
**Q.** With B1 as the molecule, how does the Km [1] read?
**A.** 520 µM

**Q.** What about the kcat [1] of the same molecule?
**A.** 0.0433 s⁻¹

**Q.** What about the kcat/Km [1] of the same molecule?
**A.** 83.3 M⁻¹ s⁻¹

B2: Chaetomium thermophilum ALKO4265 cellobiohydrolase Ct Cel7A (Ct CBH/Cel7A), recombinant, SEQ ID NO: 8 (Thermochaetoides thermophila) (protein)
chain: QQACSLTAENHPSLTWKRCTSGGSCSTVNGAVTIDANWRWTHTVSGSTNCYTGNQWDTSLCTDGKSCAQTCCVDGADYSSTYGITTSGDSLNLKFVTKHQYGTNVGSRVYLMENDTKYQMFELLGNEFTFDVDVSNLGCGLNGALYFVSMDADGGMSKYSGNKAGAKYGTGYCDAQCPRDLKFINGEANVGNWTPSTNDANAGFGRYGSCCSEMDVWEANNMATAFTPHPCTTVGQSRCEADTCGGTYSSDRYAGVCDPDGCDFNAYRQGDKTFYGKGMTVDTNKKMTVVTQFHKNSAGVLSEIKRFYVQDGKIIANAESKIPGNPGNSITQEYCDAQKVAFSNTDDFNRKGGMAQMSKALAGPMVLVMSVWDDHYANMLWLDSTYPIDQAGAPGAERGACPTTSGVPAEIEAQVPNSNVIFSNIRFGPIGSTVPGLDGSNPGNPTTTVVPPASTSTSRPTSSTSSPVSTPTGQPGGCTTQKWGQCGGIGYTGCTNCVAGTTCTQLNPWYSQCL
**Q.** Which results are given for B2?
**A.** Km [2]: 1960 µM; kcat [2]: 0.313 s⁻¹; kcat/Km [2]: 158 M⁻¹ s⁻¹

B3: Ta Cel7A: cellobiohydrolase of Thermoascus aurantiacus ALKO4242, gene Ta cel7A, amino acid SEQ ID NO: 2, no CBD (protein)
chain: MYQRALLFSFFLAAARAQQAGTVTAENHPSLTWQQCSSGGSCTTQNGKVVIDANWRWVHTTSGYTNCYTGNTWDTSICPDDVTCAQNCALDGADYSGTYGVTTSGNALRLNFVTQSSGKNIGSRLYLLQDDTTYQIFKLLGQEFTFDVDVSNLPCGLNGALYFVAMDADGGLSKYPGNKAGAKYGTGYCDSQCPRDLKFINGQANVEGWQPSANDPNAGVGNHGSCCAEMDVWEANSISTAVTPHPCDTPGQTMCQGDDCGGTYSSTRYAGTCDPDGCDFNPYRQGNHSFYGPGQIVDTSSKFTVVTQFITDDGTPSGTLTEIKRFYVQNGKVIPQSESTISGVTGNSITTEYCTAQKAAFGDNTGFFTHGGLQKISQALAQGMVLVMSLWDDHAANMLWLDSTYPTDADPDTPGVARGTCPTTSGVPADVESQYPNSYVIYSNIKVGPINSTFTAN
**Q.** Which results are given for B3?
**A.** pH optimum [3]: 5.0; Hydrolysis products as reducing sugars, Avicel [4]: 2.0 mg/mL; Hydrolysis products as reducing sugars, SPRUCE [5]: 2.0 mg/mL; Hydrolysis products as reducing sugars, WOCS ([6]; EGI, XYL, AXE): 4.3 mg/mL; Hydrolysis products as reducing sugars, WOCS [6]: 2.8 mg/mL; Hydrolysis products as reducing sugars, WILLOW ([7]; EGI, XYL, AXE): 2.8 mg/mL; Hydrolysis products as reducing sugars, WILLOW [7]: 2.0 mg/mL

B4: At EG_40_like: endoglucanase of Acremonium thermophilum ALKO4245, gene At cel45B, amino acid SEQ ID NO: 14 (protein)
chain: MRLPLPTLLALLPYYLEVSAQGASGTGTTTRYWDCCKPSCAWPLKGNSPSPVQTCDKNDRPLNDGGNTKSGCDNGGGAFMCSSQSPWAVNETTSYGWAAVRIAGSTESAWCCACYELTFTSGPVSGKKLIVQATNTGGDLGSNHFDLAIPGGGVGQSNACTNQYGAPPNGWGDRYGGVHSRSDCDSFPAALKAGCYWRFDWFQGADNPSVSFKQVACPAAITAKSGCTRQNDAINETPTGPSTVPTYTASG
**Q.** For B4, which pH optimum [8] is on record?
**A.** 5.0-5.5

**Q.** And the “Temperature of highest activity” value [9]?
**A.** 60 °C

**Q.** And the “Hydrolysis products as reducing sugars, SPRUCE” value [10]?
**A.** 4.5 mg/mL

**Q.** What about the “Hydrolysis products as reducing sugars, SECS” value [11] of the same molecule?
**A.** 4.8 mg/mL
